Laboratory results: US20210060068A1 (Stanford University, published 2021)

B1: wild-type mouse IL-2 (ligand)
chain: APTSSSTSSSTAEAQQQQQQQQQQQQHLEQLLMDLQELLSRMENYRNLKLPRMLTFKFYLPKQATELKDLQCLEDELGPLRHVLDLTQSKSFQLEDAENFISNIRVTVVKLKGSDNTFECQFDDESATVVDFLRRWIAFCQSIISTSPQ
notes: Soluble protein flowed over the SPR chip; also called wt mIL-2; wild-type IL-2

Tests used:
wild-type mouse IL-2Rβ = target: T1, wild-type mouse IL-2Rβ (mouse, UniProt P16297 27-240, limits assumed); test: SPR, soluble IL-2 over a receptor-coated chip, 1:1 binding model
T1 construct: Recombinant protein coated on the SPR chip or used to stain yeast; also called wild-type IL-2Rβ; mIL-2Rβ
T1 sequence: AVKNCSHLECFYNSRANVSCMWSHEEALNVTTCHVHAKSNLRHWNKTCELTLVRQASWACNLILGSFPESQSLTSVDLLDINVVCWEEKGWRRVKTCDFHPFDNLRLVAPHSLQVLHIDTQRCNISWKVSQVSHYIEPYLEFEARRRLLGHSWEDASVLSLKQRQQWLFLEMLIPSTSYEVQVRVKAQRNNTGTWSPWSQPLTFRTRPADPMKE
Protocol: Binding was determined by surface plasmon resonance (SPR) and curves were fitted using a 1:1 binding model.

[1] = target: T2, yeast-displayed wild-type human IL-2 (human, UniProt P60568 21-153); test: FACS, yeast-displayed hIL-2 stained with receptor tetramers
T2 construct: also called wild-type IL-2; hIL-2
T2 sequence (P60568 21-153): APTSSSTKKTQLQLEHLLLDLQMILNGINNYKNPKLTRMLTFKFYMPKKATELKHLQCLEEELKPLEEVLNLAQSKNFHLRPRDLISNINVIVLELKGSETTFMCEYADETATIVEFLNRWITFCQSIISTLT
Protocol: We introduced the H133D Y134F mutations that were used to create the mouse orthol L-2Rβ into human IL-2Rβ, as these residues are highly conserved between mouse and human.
Yeast display of IL-2. […] Transformed yeast were passaged once in SDCAA and yeast cultures in log phase were pelleted and resuspended at an OD600 of 1.0 in SGCAA induction media containing 10% SDCAA and cultured for 24 hr at 20° C.

wild-type mouse IL-2 = target: B1; test: surface plasmon resonance

B1
binding result (wild-type mouse IL-2Rβ): binds

B2: ortho human IL-2Rβ H133D Y134F mutant tetramers (receptor)
chain: AVNGTSQFTCFYNSRANISCVWSQDGALQDTSCQVHAWPDRRRWNQTCELLPVSQASWACNLILGAPDSQKLTTVDIVTLRVLCREGVRWRVMAIQDFKPFENLRLMAPISLQVVHVETHRCNISWEISQASDFFERHLEFEARTLSPGHTWEEAPLLTLKQKQEWICLETLTPDTQYEFQVRVKPLQGEFTTWSPWSQPLAFRTKPAALGKDT
notes: Tetramers used to stain yeast; also called ortho-hIL-2Rβ; ortho hIL-2Rβ
binding result [1]: no binding

B3: orthogonal mouse IL-2Rβ H134D Y135F (receptor)
chain: AVKNCSHLECFYNSRANVSCMWSHEEALNVTTCHVHAKSNLRHWNKTCELTLVRQASWACNLILGSFPESQSLTSVDLLDINVVCWEEKGWRRVKTCDFHPFDNLRLVAPHSLQVLHIDTQRCNISWKVSQVSDFIEPYLEFEARRRLLGHSWEDASVLSLKQRQQWLFLEMLIPSTSYEVQVRVKAQRNNTGTWSPWSQPLTFRTRPADPMKE
notes: Recombinant protein coated on the SPR chip or used to stain yeast; also called orthoIL-2Rβ; mIL-2Rβ H134D Y135F
binding result (wild-type mouse IL-2): no binding
